B1: 12E10 scFv (scFv)
chain: MAQVQLQQSGPGLVKPSETLSLTCTVSGDSISSYYWSWIRQPPGKGLEWIGYIYYSGSTNYNPSLKSRVTISVDTSKSQFSLKLSSVTAADTAVYYCARGRYFDVWGRGTMVTVSSGGGGSGGGGSGGGGSSYVLTQPPSVSGSPGQSITISCTGTSSDVGGYNYVSWYQQHPGKAPKLMIYEGSKRPSGVSNRFSGSKSGNTASLTISGLQAEDEADYYCSSYTTRSTRVFGGGTKLTVLGAA
B2: 12B5 scFv (scFv)
chain: MAQVQLVQSGGGLVRPGGSLSLSCAVSGITLRTYGMHWVRQAPGKGLEWVAGISFDGRSEYYADSVQGRFTISRDSSKNTLYLQMNSLRAEDTAVYYCARGAHYGFDIWGQGTMVTVSSGGGGTGGGGSGGGGSDIQMTQSPSTLSASIGDRVTITCRASEGIYHWLAWYQQKPGKAPKLLIYKASSLASGAPSRFSGSGSGTDFTLTISSLQPDDFATYYCQQYSNYPLTFGGGTELEIKRAA
B3: 12D5 IgG (antibody, V domains shown)
VH: QVQLVESGGGLVKPGGSLRLSCAASGFTFSSHNMNWVRQAPGKGLEWVSSISSSSSYIYYADSVKGRFTISRDNAKNSLYLQMNSLRAEDTAVYYCARDRGSTGMDVWGRGTLVTVSS
VL: DIVMTQSPSTLSASIGDRVTITCRASEGIYHWLAWYQQKPGKAPKLLIYKASSLASGAPSRFSGSGSGTDFTLTISSLQPDDFATYYCQQYSNYPLTFGGGTELEIKR
B4: 12B5 IgG (antibody, V domains shown)
VH: QVQLVQSGGGLVRPGGSLSLSCAVSGITLRTYGMHWVRQAPGKGLEWVAGISFDGRSEYYADSVQGRFTISRDSSKNTLYLQMNSLRAEDTAVYYCARGAHYGFDIWGQGTMVTVSS
VL: B3 VL
B5: 12B5 Fab (Fab, from another filing)
scFv: B2 chain
B6: 12D5 Fab (Fab, V domains shown)
VH: B3 VH
VL: B3 VL

Each binder was assayed against T1, human c-mpl (thrombopoietin receptor) on HU-03 cells and human platelets (human, UniProt P40238 26-635) (assay: competition with 100 pM 125I-TPO for binding to human platelets).
T1 construct: whole, on cells; also called mpl receptor; TPO receptor
T1 sequence (looked up): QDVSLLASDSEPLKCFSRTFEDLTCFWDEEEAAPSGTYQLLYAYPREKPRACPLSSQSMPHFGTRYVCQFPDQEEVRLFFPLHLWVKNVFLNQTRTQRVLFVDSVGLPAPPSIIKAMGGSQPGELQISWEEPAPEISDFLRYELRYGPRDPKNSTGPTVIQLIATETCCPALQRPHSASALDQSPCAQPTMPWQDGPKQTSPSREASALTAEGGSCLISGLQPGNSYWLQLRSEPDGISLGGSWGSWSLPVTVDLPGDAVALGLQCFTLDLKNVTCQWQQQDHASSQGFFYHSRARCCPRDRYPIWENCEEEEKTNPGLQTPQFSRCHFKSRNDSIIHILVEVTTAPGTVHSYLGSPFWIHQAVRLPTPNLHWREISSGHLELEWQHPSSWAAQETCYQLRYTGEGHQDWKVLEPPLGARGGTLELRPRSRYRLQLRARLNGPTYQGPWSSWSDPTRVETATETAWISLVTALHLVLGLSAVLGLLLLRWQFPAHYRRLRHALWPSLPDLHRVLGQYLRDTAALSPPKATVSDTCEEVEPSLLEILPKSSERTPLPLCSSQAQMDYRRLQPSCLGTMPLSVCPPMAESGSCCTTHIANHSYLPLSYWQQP

Binder | IC50
B1 | 5 nM
B2 | 100 nM
B3 | 500 nM
B4 | 300 nM

What follows are binders tested against human c-mpl (thrombopoietin receptor) on HU-03 cells and human platelets (human) (UniProt P40238) (assay: cell-based or functional assay).

Binder | Hu3 Proliferation (ED50)
B5 | > 1 µM

What follows are binders tested against T1, human c-mpl (thrombopoietin receptor) … (assay: cell-based or functional assay).

Binder | Hu3 Proliferation (ED50)
B1 | 5 pM
B2 | 20 pM
B4 | 30 pM

The binders below were run against mpl-Rse.gD chimeric receptor (human, UniProt P40238 26-491) (assay: cell-based or functional assay).

Binder | KIRA (ED50)
B5 | 3 nM
B2 | 1 nM
B6 | 4 nM
B3 | 3 nM

What follows are binders tested against human c-mpl (thrombopoietin receptor) on HU-03 cells and human platelets (human) (UniProt P40238) (assay: competition with 100 pM 125I-TPO for binding to HU-03 cells).

Binder | IC50
B5 | 900 nM

The binders below were run against T1, human c-mpl (thrombopoietin receptor) … in the same assay as above.

Binder | IC50
B1 | 5 nM
B2 | 10 nM
B6 | 500 nM
B3 | 10 nM
B4 | 10 nM

Each binder was assayed against T2, mpl-Ig (UniProt P40238 26-491) (assay: TPO receptor-binding inhibition ELISA: biotinylated TPO on captured mpl-Ig).
T2 construct: From conditioned media of mpl-Ig-transfected 293 cells, captured on rabbit anti-human IgG Fc; also called mpl-IgG; not shown: Ig part, captured by anti-human IgG Fc
T2 sequence (looked up): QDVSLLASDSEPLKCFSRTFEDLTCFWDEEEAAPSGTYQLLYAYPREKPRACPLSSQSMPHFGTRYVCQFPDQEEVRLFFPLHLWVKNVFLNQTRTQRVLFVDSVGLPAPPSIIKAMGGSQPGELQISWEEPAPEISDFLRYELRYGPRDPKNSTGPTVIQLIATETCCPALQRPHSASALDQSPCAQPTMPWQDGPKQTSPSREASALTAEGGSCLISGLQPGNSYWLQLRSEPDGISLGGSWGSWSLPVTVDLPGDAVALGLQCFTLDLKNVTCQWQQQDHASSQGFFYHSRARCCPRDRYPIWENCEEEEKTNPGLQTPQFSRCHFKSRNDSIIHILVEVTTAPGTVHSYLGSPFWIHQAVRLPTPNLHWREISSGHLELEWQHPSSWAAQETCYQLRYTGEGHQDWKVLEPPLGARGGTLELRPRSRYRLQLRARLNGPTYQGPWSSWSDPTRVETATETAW

Binder | IC50
B1 | 1.6 nM
B2 | 17 nM
B6 | 1000 nM
B3 | 0.45 nM
B4 | 0.152 nM
